Measured values taken from article PMC3506619, “NADP^+ Binding to the Regulatory Subunit of Methionine Adenosyltransferase II Increases Intersubunit Binding Affinity in the Hetero-Trimer” (PLoS ONE, 2012).

Biological target: methionine adenosyltransferase II regulatory β subunit, wild type (human MAT2B, V1 form) (human) (UniProt Q9NZL9)
Test: AUC; sedimentation equilibrium of purified β (0.2-0.5 mg/ml), 293 K

stoichiometry N: 2
Substance: methionine adenosyltransferase II regulatory β subunit, wild type (human MAT2B, V1 form) (from UniProt Q9NZL9 1-334) (natural protein)
